Test [1] has as its target T1, 7 Ig-domain human KDR fused to human Fc (human, UniProt P35968 20-764).
T1 construct: domain: 7 Ig-domain; also called human 7-domain KDR-Fc; KDR-Fc; not shown: human Fc
The test can be described thus: radioimmunoassay: 7 Ig-domain KDR-human Fc captured by polyclonal anti-Fc on a microtitre plate, fragment added, then 125-I labeled VEGF-165 as the blocked ligand. As to the method: The ability of the fragments to block VEGF binding to KDR was measured in a radioimmunoassay.

For test [2], the target named is T1, 7 Ig-domain human KDR fused to human Fc. In words: BIAcore, KDR-Fc captured on anti-Fc chip, fragment passed over. From the text:
(§1) 7 Ig-domain human KDR fused to human Fc was captured on a chip coated with anti-Fc, and the various fragments of the CDR grafted antibody g165 and the murine parent antibody VR165 were passed over permitting affinity determination. The table below summarises the results obtained. In this assay format, there is an advantage of divalency as shown by the lower off rates (Kd) of the divalent species. The affinity of the grafted DFM is very similar to the murine IgG, with the DFM-PEG showing a minor reduction of affinity.
(Surface plasmon resonance follows binding to a sensor surface in real time, without labels.)

The target is the same in test [3]. In words: BIAcore, KDR-Fc captured on anti-Fc chip, antibody passed over.
Text: as §1

T1 sequence (P35968 20-764 limits assumed): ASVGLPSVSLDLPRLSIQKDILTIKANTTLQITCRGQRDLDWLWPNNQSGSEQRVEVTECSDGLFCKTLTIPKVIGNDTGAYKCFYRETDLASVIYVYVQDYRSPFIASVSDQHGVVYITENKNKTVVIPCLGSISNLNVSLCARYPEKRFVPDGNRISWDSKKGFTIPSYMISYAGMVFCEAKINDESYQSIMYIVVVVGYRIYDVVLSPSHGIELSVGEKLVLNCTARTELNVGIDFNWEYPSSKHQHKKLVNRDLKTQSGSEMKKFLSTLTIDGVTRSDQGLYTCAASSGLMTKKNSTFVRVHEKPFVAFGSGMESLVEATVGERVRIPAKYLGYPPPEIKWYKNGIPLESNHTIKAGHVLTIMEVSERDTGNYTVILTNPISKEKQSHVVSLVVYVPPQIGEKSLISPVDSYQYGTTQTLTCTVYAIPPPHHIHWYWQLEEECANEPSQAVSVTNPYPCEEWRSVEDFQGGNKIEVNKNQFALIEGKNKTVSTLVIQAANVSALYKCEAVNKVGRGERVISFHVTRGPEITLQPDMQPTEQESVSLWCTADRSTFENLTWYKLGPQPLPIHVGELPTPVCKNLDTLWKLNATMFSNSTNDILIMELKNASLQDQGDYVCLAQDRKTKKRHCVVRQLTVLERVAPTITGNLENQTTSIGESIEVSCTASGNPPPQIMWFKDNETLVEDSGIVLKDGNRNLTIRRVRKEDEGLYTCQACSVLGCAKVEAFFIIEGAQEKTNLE

B1: g165 DFM-PEG40 (PEGylated di-(modified Fab) of g165) (other)
light: DIQMTQSPSSLSASVGDRVTITCRASQDIAGSLNWLQQKPGKAIKRLIYATSSLDSGVPKRFSGSRSGSDYTLTISSLQPEDFATYYCLQYGSFPPTFGQGTKVEIKRTVAAPSVFIFPPSDEQLKSGTASVVCLLNNFYPREAKVQWKVDNALQSGNSQESVTEQDSKDSTYSLSSTLTLSKADYEKHKVYACEVTHQGLSSPVTKSFNRGEC
heavy: EVQLVESGGGLVQPGGSLRLSCAASGFTFSSYGMSWVRQAPGKGLEWVATITSGGSYTYYVDSVKGRFTISRDNAKNTLYLQMNSLRAEDTAVYYCVRIGEDALDYWGQGTLVTVSSASTKGPSVFPLAPSSKSTSGGTAALGCLVKDYFPEPVTVSWNSGALTSGVHTFPAVLQSSGLYSLSSVVTVPSSLGTQTYICNVNHKPSNTKVDKKVEPKSCDKTHTCAA
modifications: hinge cysteine linked to (mPEG)-lysyl bis-maleimide (PEG about 40 kDa)
notes: no limits stated
In the case of B1, the “IC50 (read off the curve)” value in test [1] is ~0.05 µg/mL. The same molecule came in with a Kd in test [2] of 0.041 nM.

B2: g165 DFM (di-(modified Fab) of the CDR-grafted antibody g165, naked) (other)
light: B1 light
heavy: B1 heavy
modifications: hinge cysteine cross-linked to the second Fab' (linker of the naked DFM not described)
notes: also called grafted DFM; naked DFM
In test [2], B2 registered a Kd of 0.029 nM.

B3: g165 modified Fab (Fab') fragment, CDP791 (Fab, V domains shown)
VH: EVQLVESGGGLVQPGGSLRLSCAASGFTFSSYGMSWVRQAPGKGLEWVATITSGGSYTYYVDSVKGRFTISRDNAKNTLYLQMNSLRAEDTAVYYCVRIGEDALDYWGQGTLVTVSS
VL: DIQMTQSPSSLSASVGDRVTITCRASQDIAGSLNWLQQKPGKAIKRLIYATSSLDSGVPKRFSGSRSGSDYTLTISSLQPEDFATYYCLQYGSFPPTFGQGTKVEIKR
notes: g165 = gL3gH3; no limits stated; also called CDP791 Fab
On to B3, for which the “IC50 (read off the curve)” value in test [1] was ~0.2 µg/mL. Also, the Kd in test [2] was determined as 0.91 nM.

B4: g165 FAB-PEG40 (PEGylated modified Fab of g165) (Fab, V domains shown)
VH: B3 VH
VL: B3 VL
modifications: single cysteine of the truncated hinge linked to (mPEG)-lysyl maleimide (two mPEG of about 20,000 Da, about 40,000 Da in all)
notes: no limits stated
With B4, the Kd in test [2] worked out at 1.07 nM.

B5: mouse monoclonal antibody VR165 (antibody, mouse IgG2a, V domains shown)
VH: EVQLVESGGDLVKPGGSLKLSCAASGFTFSSYGMSWVRQTPDKRLQWVATITSGGSYTYYPDTVKGRFTISRDNAENTLYLQMSSLKSEDTAMYYCVRIGEDALDYWGQGTSVTVSS
VL: DIQMTQSPSSLSASLGERVSLTCRASQDIAGSLNWLRQEPDGTIKRLIYATSSLDSGVPKRFSGSRSGSDYSLTISSLESEDFVDYYCLQYGSFPPTFGGGSKLEIKR
notes: also called mIgG; murine IgG
Consider B5, for which the Kd in test [3] is 0.03 nM.

In general, Kd refers to a measure of binding affinity in units of concentration. The low end stands for higher affinity, the high end for lower affinity.

Source of the values: patent publication US20090269840A1 (UCB, published 2009).
